For the data set, the system named is Saccharomyces cerevisiae. As to the kind of experiment: protein stability index of tFT-peptide fusion (C-terminal peptide) (PSI (0-1 scale)); higher = more stable (slower turnover). The note with it: temperature: 30 C. The method, then:
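MPS profiling in S. cerevisiae of the yeast C-terminome library: the last 12 aa of each annotated ORF are fused to the C-terminus of a sfGFP-mCherry timer, after a GGGS linker. Cells are FACS-sorted into 8 mCherry/sfGFP bins and deep-sequenced. PSI runs from 0 (unstable) to 1 (stable); wild type and das1Δ backgrounds, two technical replicates each.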

[1] abbreviates: genetic background: das1 deletion.

Here are results for 68 sequences from the supplement of paper PMC10724198.

± gives the standard deviation of the averaged measurements.

Sequence ARTSDELQFTLP [MPT5 C-terminal 12 aa] yielded a protein stability index under setting [1] of 0.7165 ± 0.0027 and a protein stability index (genetic background: wild type) of 0.6868 ± 0.0057.
With ARVASQLGQKKK [PRO3 C-terminal 12 aa], the protein stability index runs as follows: under setting [1], 0.6735 ± 0.0064; (genetic background: wild type) 0.684 ± 0.014.
As for ASPTCTPQNPCV [CAB4 C-terminal 12 aa], the protein stability index runs as follows: under setting [1], 0.706 ± 0.021; (genetic background: wild type) 0.735 ± 0.062.
For ASYIQSREICLV [GNT1 C-terminal 12 aa], the protein stability index by setting is: under setting [1], 0.6464 ± 0.006; (genetic background: wild type) 0.5859 ± 0.0036.
For ATGGKKTTFADE [RPA14 C-terminal 12 aa] the same measures were 0.711 ± 0.054 and 0.667 ± 0.036.
For ATTDQEGDIHLE [PRE10 C-terminal 12 aa], the protein stability index turned out to be 0.689 ± 0.026 under setting [1] and 0.678 ± 0.038 (genetic background: wild type).
For ATTNISVLQECV [VRL1 C-terminal 12 aa] the same measures were 0.666 ± 0.018 and 0.642 ± 0.011.
AWVPPTEDDSDE [DPH5 C-terminal 12 aa] showed a protein stability index under setting [1] of 0.698 ± 0.018 and a protein stability index (genetic background: wild type) of 0.665 ± 0.0093.
As for AYLQYYSESPEN [DUG1 C-terminal 12 aa], the protein stability index is, setting by setting: under setting [1], 0.707 ± 0.0053; (genetic background: wild type) 0.724 ± 0.051.
On to “CFFLRKENGKDE [YLR120W-A C-terminal 12 aa]”, for which the protein stability index reads like this: under setting [1], 0.709 ± 0.041; (genetic background: wild type) 0.687 ± 0.017.
Take “CHLLFGTHKKTL [YBL071C-B C-terminal 12 aa]”: the protein stability index under setting [1] is 0.7233 ± 0.002 and the protein stability index (genetic background: wild type) worked out at 0.6921 ± 0.003.
On to CKQWEISNMLKK [CSI1 C-terminal 12 aa], for which the protein stability index worked out at 0.738 ± 0.023 under setting [1] and 0.664 ± 0.04 (genetic background: wild type).
With CKYPTKDIPIFF [RAD17 C-terminal 12 aa], the protein stability index stood at 0.727 ± 0.013 under setting [1] and 0.734 ± 0.013 (genetic background: wild type).
Regarding CLSLDFVVPRPK [SHR5 C-terminal 12 aa], the protein stability index runs as follows: under setting [1], 0.74 ± 0.016; (genetic background: wild type) 0.697 ± 0.048.
For “CMRPANQEIYPL [YLR157W-D C-terminal 12 aa]” the same measures were 0.704 ± 0.02 and 0.681 ± 0.017.
For CSGAAGKIYVCD [CDC40 C-terminal 12 aa] the same measures were 0.6678 ± 0.005 and 0.723 ± 0.01.
Take CTSCGYKFRTNN [RPA12 C-terminal 12 aa]: the protein stability index amounted to 0.7397 ± 0.0049 under setting [1] and 0.2522 ± 0.002 (genetic background: wild type).
For the sequence CTSLLKGERKKE [RRT8 C-terminal 12 aa], the protein stability index reads like this: under setting [1], 0.6656 ± 0.00077; (genetic background: wild type) 0.685 ± 0.012.
For DAFEKAIEAVYA [ARG8 C-terminal 12 aa] the same measures were 0.546 ± 0.014 and 0.558 ± 0.012.
In the case of DAFTDPRQYHLT [BUD19 C-terminal 12 aa], the protein stability index reads like this: under setting [1], 0.717 ± 0.0052; (genetic background: wild type) 0.69 ± 0.0082.
Consider DAHIYNKRSKPD [PHO80 C-terminal 12 aa], for which the protein stability index worked out at 0.646 ± 0.012 under setting [1] and 0.662 ± 0.04 (genetic background: wild type).
On to DDAKDSNNSSLR [WSC2 C-terminal 12 aa], for which the protein stability index under setting [1] amounted to 0.682 ± 0.011 and the protein stability index (genetic background: wild type) was 0.724 ± 0.0081.
On to DDAVNCNTSNCL [ZRC1 C-terminal 12 aa], for which the protein stability index runs as follows: under setting [1], 0.7026 ± 0.002; (genetic background: wild type) 0.698 ± 0.017.
Consider DDEEATAMFKLE [IES1 C-terminal 12 aa], for which the protein stability index amounted to 0.715 ± 0.0089 under setting [1] and 0.6754 ± 0.0028 (genetic background: wild type).
For DDNEPDEEANRA [RXT2 C-terminal 12 aa], the protein stability index is, setting by setting: under setting [1], 0.672 ± 0.012; (genetic background: wild type) 0.6656 ± 0.0043.
Consider DDTLERAGRIKN [FAD1 C-terminal 12 aa], for which the protein stability index reads like this: under setting [1], 0.69 ± 0.023; (genetic background: wild type) 0.709 ± 0.019.
In the case of DECFCLARHEND [TDP1 C-terminal 12 aa], the protein stability index amounted to 0.7114 ± 0.0022 under setting [1] and 0.708 ± 0.023 (genetic background: wild type).
For DEKTLDSIGNSL [VCX1 C-terminal 12 aa], the protein stability index is, setting by setting: under setting [1], 0.701 ± 0.0096; (genetic background: wild type) 0.696 ± 0.013.
For DENDKVIAIKVV [VPS25 C-terminal 12 aa], the protein stability index under setting [1] was 0.5736 ± 0.00061 and the protein stability index (genetic background: wild type) is 0.525 ± 0.011.
DGFSVPITTFQT [CDC15 C-terminal 12 aa]: the protein stability index is 0.712 ± 0.011 under setting [1] and 0.709 ± 0.045 (genetic background: wild type).
DHLHNLAQYWRT [VPS34 C-terminal 12 aa]: the protein stability index under setting [1] worked out at 0.697 ± 0.015 and the protein stability index (genetic background: wild type) was found to be 0.703 ± 0.038.
For the sequence DIIKQGVNDIIV [ARD1 C-terminal 12 aa], the protein stability index under setting [1] was found to be 0.672 ± 0.015 and the protein stability index (genetic background: wild type) is 0.717 ± 0.033.
Consider DIISAFEEYKNA [SEC3 C-terminal 12 aa], for which the protein stability index under setting [1] is 0.714 ± 0.036 and the protein stability index (genetic background: wild type) turned out to be 0.685 ± 0.026.
Turning to DLEEAANKAQPQ [YLR257W C-terminal 12 aa], the protein stability index was 0.6993 ± 0.0011 under setting [1] and 0.7125 ± 0.0015 (genetic background: wild type).
With DLESLFKEKLSI [ALA1 C-terminal 12 aa], the protein stability index worked out at 0.7111 ± 0.0015 under setting [1] and 0.705 ± 0.02 (genetic background: wild type).
For DLEVKLKKHKKN [TRZ1 C-terminal 12 aa], the protein stability index by setting is: under setting [1], 0.733 ± 0.029; (genetic background: wild type) 0.676 ± 0.05.
For DLVKAAAGSDNE [RRP15 C-terminal 12 aa] the same measures were 0.6823 ± 0.0059 and 0.675 ± 0.018.
For DLVKASSTLNVS [SDL1 C-terminal 12 aa] the same measures were 0.682 ± 0.0043 and 0.672 ± 0.0084.
DMGKNLLQNKKF [ERG2 C-terminal 12 aa]: the protein stability index under setting [1] was determined as 0.695 ± 0.039 and the protein stability index (genetic background: wild type) came out at 0.695 ± 0.012.
Consider DNDDDAGAVPTS [CDC13 C-terminal 12 aa], for which the protein stability index reads like this: under setting [1], 0.7113 ± 0.0012; (genetic background: wild type) 0.684 ± 0.011.
In the case of DPKLYFDATILS [TDA3 C-terminal 12 aa], the protein stability index runs as follows: under setting [1], 0.703 ± 0.025; (genetic background: wild type) 0.691 ± 0.013.
For DSQDMERMDSDS [YLR076C C-terminal 12 aa], the protein stability index was 0.691 ± 0.035 under setting [1] and 0.745 ± 0.11 (genetic background: wild type).
Consider DSQHKHDYSHSG [DCK1 C-terminal 12 aa], for which the protein stability index amounted to 0.6787 ± 0.0061 under setting [1] and 0.715 ± 0.035 (genetic background: wild type).
As to DTFPRWEGIKSK [PAD1 C-terminal 12 aa], the protein stability index runs as follows: under setting [1], 0.70511 ± 2.5e-05; (genetic background: wild type) 0.6968 ± 0.0043.
As for DVEDVERVSKKI [CDC34 C-terminal 12 aa], the protein stability index by setting is: under setting [1], 0.704 ± 0.057; (genetic background: wild type) 0.67 ± 0.032.
In the case of DWESNQAKWIYE [YNK1 C-terminal 12 aa], the protein stability index was 0.752 ± 0.034 under setting [1] and 0.718 ± 0.029 (genetic background: wild type).
Consider DYKTKRNPSVLH [ISU2 C-terminal 12 aa], for which the protein stability index runs as follows: under setting [1], 0.6878 ± 0.0024; (genetic background: wild type) 0.7106 ± 0.0056.
In the case of DYSRRVLRLMNE [WSC4 C-terminal 12 aa], the protein stability index under setting [1] worked out at 0.7058 ± 0.0028 and the protein stability index (genetic background: wild type) came to 0.5834 ± 0.0049.
The corresponding values for DYWRKRGISSVY [ECM38 C-terminal 12 aa] are 0.68703 ± 0.00044 and 0.72719 ± 0.0003.
As to DYYFRTGVKRLQ [ARP10 C-terminal 12 aa], the protein stability index stood at 0.705 ± 0.028 under setting [1] and 0.732 ± 0.044 (genetic background: wild type).
EAETPGIIDKHQ [SIS2 C-terminal 12 aa] returned a protein stability index under setting [1] of 0.689 ± 0.023 and a protein stability index (genetic background: wild type) of 0.677 ± 0.044.
Consider “EALPPCLQIFRP [YDR354C-A C-terminal 12 aa]”, for which the protein stability index was found to be 0.701 ± 0.0091 under setting [1] and 0.6739 ± 0.0039 (genetic background: wild type).
Take EAQLSCSEESLA [COS1 C-terminal 12 aa]: the protein stability index runs as follows: under setting [1], 0.69057 ± 5e-06; (genetic background: wild type) 0.683 ± 0.024.
In turn, EASEPFKTFKNT [MMS22 C-terminal 12 aa] yielded a protein stability index under setting [1] of 0.724 ± 0.0073 and a protein stability index (genetic background: wild type) of 0.696 ± 0.0087.
As to EDDFGPKPKFFI [SWE1 C-terminal 12 aa], the protein stability index was 0.71 ± 0.011 under setting [1] and 0.683 ± 0.039 (genetic background: wild type).
The corresponding values for EEEEEEGKEGDA [SCT1 C-terminal 12 aa] are 0.684 ± 0.012 and 0.697 ± 0.0061.
As for EEKKKQEEGHSN [MNN4 C-terminal 12 aa], the protein stability index is 0.699 ± 0.0072 under setting [1] and 0.663 ± 0.03 (genetic background: wild type).
As for EFAKCEFETPAV [CKB1 C-terminal 12 aa], the protein stability index reads like this: under setting [1], 0.722 ± 0.011; (genetic background: wild type) 0.74 ± 0.0048.
Take EFDLADDRRYDI [TPO5 C-terminal 12 aa]: the protein stability index under setting [1] was determined as 0.705 ± 0.03 and the protein stability index (genetic background: wild type) amounted to 0.682 ± 0.011.
In the case of EGIFPANYVELV [LSB3 C-terminal 12 aa], the protein stability index under setting [1] was determined as 0.7016 ± 0.0045 and the protein stability index (genetic background: wild type) turned out to be 0.678 ± 0.037.
For the sequence EGPVTIILDSDQ [DTD1 C-terminal 12 aa], the protein stability index is, setting by setting: under setting [1], 0.701 ± 0.0098; (genetic background: wild type) 0.7015 ± 0.0042.
With EKKFKEILNIQW [PET112 C-terminal 12 aa], the protein stability index came to 0.709 ± 0.025 under setting [1] and 0.722 ± 0.01 (genetic background: wild type).
Regarding EKKYSNNTNAIQ [CTI6 C-terminal 12 aa], the protein stability index reads like this: under setting [1], 0.68042 ± 0.00045; (genetic background: wild type) 0.657 ± 0.024.
Turning to EKPEGKDTKTEE [CMK1 C-terminal 12 aa], the protein stability index was found to be 0.685 ± 0.022 under setting [1] and 0.684 ± 0.051 (genetic background: wild type).
Consider EKQSSTASEKAA [THI7 C-terminal 12 aa], for which the protein stability index was found to be 0.6813 ± 0.0064 under setting [1] and 0.704 ± 0.029 (genetic background: wild type).
Consider EKRLQKEIKSIE [IDP1 C-terminal 12 aa], for which the protein stability index worked out at 0.734 ± 0.012 under setting [1] and 0.673 ± 0.06 (genetic background: wild type).
Turning to ELDEIANSLENL [TPM2 C-terminal 12 aa], the protein stability index by setting is: under setting [1], 0.694 ± 0.019; (genetic background: wild type) 0.683 ± 0.01.
Consider ELKRKDALSKKI [COA2 C-terminal 12 aa], for which the protein stability index under setting [1] worked out at 0.688 ± 0.048 and the protein stability index (genetic background: wild type) stood at 0.75 ± 0.017.
